Drawing on US7217570B2, “Organotypic intestinal culture and methods of use thereof” (The Wistar Institute of Anatomy and Biology, priority 2001, dated 2007), this text covers epithelial cell proliferation for two molecules.

The experiment concerns enteric epithelial cells. In words: Growth factor modulation of organotypic culture in reduced or modified media (Example 2). Format: cell-based, human. The conditions noted are these: growth factor added individually to base medium (MCDB 201/L15, transferrin, antibiotics). As to the method:
To determine the role of growth factors on proliferation of colonic epithelial cells, this growth medium was modified by changing combinations of growth factors and deleting serum. Keratinocyte growth factor (KGF, R&D Systems) at 20 ng/ml was also tested as part of 23 growth factor combinations. Total relative cell numbers of a specific type were counted as an average of all nuclei counts from a minimum of 3 randomly selected cross-sections of a reconstruct. Goblet cells were counted based on their typical morphology and positive Alcian staining in at least 3 randomly selected slides. Proliferation rates in % were established by counting the number of BrdU or Ki-67-positive nuclei per total epithelial cell nuclei of section. Apoptotic cells were counted in H&E-stained sections (Vagunda, V. et al. 2000 Anal. Quant. Cytol. Histol., 22:307–310). Apoptotic bodies and nuclei were determined according to the size and numbers of the fragments. Apoptosis was calculated as percentage of total nuclei per section (Kerr, J F. et al. 1972 Br. J. Cancer, 26:239–257) To define the role of critical growth factors supporting growth and differentiation of the enteric epithelial cells, an organotypic culture, such as that described in Example 1, was grown in medium in which the number of supplements was reduced. […]

B1: epidermal growth factor (protein, UniProt P01133 23-1207, looked up)
Pro-epidermal growth factor: PQHWSCPEGTLAGNGNSTCVGPAPFLIFSHGNSIFRIDTEGTNYEQLVVDAGVSVIMDFHYNEKRIYWVDLERQLLQRVFLNGSRQERVCNIEKNVSGMAINWINEEVIWSNQQEGIITVTDMKGNNSHILLSALKYPANVAVDPVERFIFWSSEVAGSLYRADLDGVGVKALLETSEKITAVSLDVLDKRLFWIQYNREGSNSLICSCDYDGGSVHISKHPTQHNLFAMSLFGDRIFYSTWKMKTIWIANKHTGKDMVRINLHSSFVPLGELKVVHPLAQPKAEDDTWEPEQKLCKLRKGNCSSTVCGQDLQSHLCMCAEGYALSRDRKYCEDVNECAFWNHGCTLGCKNTPGSYYCTCPVGFVLLPDGKRCHQLVSCPRNVSECSHDCVLTSEGPLCFCPEGSVLERDGKTCSGCSSPDNGGCSQLCVPLSPVSWECDCFPGYDLQLDEKSCAASGPQPFLLFANSQDIRHMHFDGTDYGTLLSQQMGMVYALDHDPVENKIYFAHTALKWIERANMDGSQRERLIEEGVDVPEGLAVDWIGRRFYWTDRGKSLIGRSDLNGKRSKIITKENISQPRGIAVHPMAKRLFWTDTGINPRIESSSLQGLGRLVIASSDLIWPSGITIDFLTDKLYWCDAKQSVIEMANLDGSKRRRLTQNDVGHPFAVAVFEDYVWFSDWAMPSVMRVNKRTGKDRVRLQGSMLKPSSLVVVHPLAKPGADPCLYQNGGCEHICKKRLGTAWCSCREGFMKASDGKTCLALDGHQLLAGGEVDLKNQVTPLDILSKTRVSEDNITESQHMLVAEIMVSDQDDCAPVGCSMYARCISEGEDATCQCLKGFAGDGKLCSDIDECEMGVPVCPPASSKCINTEGGYVCRCSEGYQGDGIHCLDIDECQLGEHSCGENASCTNTEGGYTCMCAGRLSEPGLICPDSTPPPHLREDDHHYSVRNSDSECPLSHDGYCLHDGVCMYIEALDKYACNCVVGYIGERCQYRDLKWWELRHAGHGQQQKVIVVAVCVVVLVMLLLLSLWGAHYYRTQKLLSKNPKNPYEESSRDVRSRRPADTEDGMSSCPQPWFVVIKEHQDLKNGGQPVAGEDGQAADGSMQPTSWRQEPQLCGMGTEQGCWIPVSSDKGSCPQVMERSFHMPSYGTQTLEGGVEKPHSLLSANPLWQQRALDPPHQMELTQ
modifications: Pro-epidermal growth factor
notes: human recombinant epidermal growth factor (Sigma)
On to B1, for which the epithelial cell proliferation result is recorded as “not supported”.

B2: Keratinocyte growth factor (protein, UniProt P21781 32-194, looked up)
Fibroblast growth factor 7: CNDMTPEQMATNVNCSSPERHTRSYDYMEGGDIRVRRLFCRTQWYLRIDKRGKVKGTQEMKNNYNIMEIRTVAVGIVAIKGVESEFYLAMNKEGKLYAKKECNEDCNFKELILENHYNTYASAKWTHNGGEMFVALNQKGIPVRGKKTKKEQKTAHFLPMAIT
notes: Keratinocyte growth factor (R&D Systems) at 20 ng/ml
B2: the epithelial cell proliferation result is “not supported”.
